In patent US20250262210A1 (TRUSTEES OF COLUMBIA UNIVERSITY IN THE CITY OF NEW YORK, published 2025):

Assays:
Experiment in all cases: IP/MS, LZTR1 R810W-FLAG, U87
HTT = HTT (human, UniProt P42858 1-3142)
Outline: (§1)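 Gel slices were reduced with 5 mM DTT, alkylated with 11 mM IAA and digested overnight at 37° C. with trypsin. Peptides were analysed on an Orbitrap Fusion Tribrid by LC-MS/MS.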

SPG11 = SPG11 (human, UniProt Q96JI7 1-2443, limits assumed)
Outline: as §1

HERC2 = HERC2 (human, UniProt O95714 1-4834)
Sequence of HERC2 (O95714 whole entry): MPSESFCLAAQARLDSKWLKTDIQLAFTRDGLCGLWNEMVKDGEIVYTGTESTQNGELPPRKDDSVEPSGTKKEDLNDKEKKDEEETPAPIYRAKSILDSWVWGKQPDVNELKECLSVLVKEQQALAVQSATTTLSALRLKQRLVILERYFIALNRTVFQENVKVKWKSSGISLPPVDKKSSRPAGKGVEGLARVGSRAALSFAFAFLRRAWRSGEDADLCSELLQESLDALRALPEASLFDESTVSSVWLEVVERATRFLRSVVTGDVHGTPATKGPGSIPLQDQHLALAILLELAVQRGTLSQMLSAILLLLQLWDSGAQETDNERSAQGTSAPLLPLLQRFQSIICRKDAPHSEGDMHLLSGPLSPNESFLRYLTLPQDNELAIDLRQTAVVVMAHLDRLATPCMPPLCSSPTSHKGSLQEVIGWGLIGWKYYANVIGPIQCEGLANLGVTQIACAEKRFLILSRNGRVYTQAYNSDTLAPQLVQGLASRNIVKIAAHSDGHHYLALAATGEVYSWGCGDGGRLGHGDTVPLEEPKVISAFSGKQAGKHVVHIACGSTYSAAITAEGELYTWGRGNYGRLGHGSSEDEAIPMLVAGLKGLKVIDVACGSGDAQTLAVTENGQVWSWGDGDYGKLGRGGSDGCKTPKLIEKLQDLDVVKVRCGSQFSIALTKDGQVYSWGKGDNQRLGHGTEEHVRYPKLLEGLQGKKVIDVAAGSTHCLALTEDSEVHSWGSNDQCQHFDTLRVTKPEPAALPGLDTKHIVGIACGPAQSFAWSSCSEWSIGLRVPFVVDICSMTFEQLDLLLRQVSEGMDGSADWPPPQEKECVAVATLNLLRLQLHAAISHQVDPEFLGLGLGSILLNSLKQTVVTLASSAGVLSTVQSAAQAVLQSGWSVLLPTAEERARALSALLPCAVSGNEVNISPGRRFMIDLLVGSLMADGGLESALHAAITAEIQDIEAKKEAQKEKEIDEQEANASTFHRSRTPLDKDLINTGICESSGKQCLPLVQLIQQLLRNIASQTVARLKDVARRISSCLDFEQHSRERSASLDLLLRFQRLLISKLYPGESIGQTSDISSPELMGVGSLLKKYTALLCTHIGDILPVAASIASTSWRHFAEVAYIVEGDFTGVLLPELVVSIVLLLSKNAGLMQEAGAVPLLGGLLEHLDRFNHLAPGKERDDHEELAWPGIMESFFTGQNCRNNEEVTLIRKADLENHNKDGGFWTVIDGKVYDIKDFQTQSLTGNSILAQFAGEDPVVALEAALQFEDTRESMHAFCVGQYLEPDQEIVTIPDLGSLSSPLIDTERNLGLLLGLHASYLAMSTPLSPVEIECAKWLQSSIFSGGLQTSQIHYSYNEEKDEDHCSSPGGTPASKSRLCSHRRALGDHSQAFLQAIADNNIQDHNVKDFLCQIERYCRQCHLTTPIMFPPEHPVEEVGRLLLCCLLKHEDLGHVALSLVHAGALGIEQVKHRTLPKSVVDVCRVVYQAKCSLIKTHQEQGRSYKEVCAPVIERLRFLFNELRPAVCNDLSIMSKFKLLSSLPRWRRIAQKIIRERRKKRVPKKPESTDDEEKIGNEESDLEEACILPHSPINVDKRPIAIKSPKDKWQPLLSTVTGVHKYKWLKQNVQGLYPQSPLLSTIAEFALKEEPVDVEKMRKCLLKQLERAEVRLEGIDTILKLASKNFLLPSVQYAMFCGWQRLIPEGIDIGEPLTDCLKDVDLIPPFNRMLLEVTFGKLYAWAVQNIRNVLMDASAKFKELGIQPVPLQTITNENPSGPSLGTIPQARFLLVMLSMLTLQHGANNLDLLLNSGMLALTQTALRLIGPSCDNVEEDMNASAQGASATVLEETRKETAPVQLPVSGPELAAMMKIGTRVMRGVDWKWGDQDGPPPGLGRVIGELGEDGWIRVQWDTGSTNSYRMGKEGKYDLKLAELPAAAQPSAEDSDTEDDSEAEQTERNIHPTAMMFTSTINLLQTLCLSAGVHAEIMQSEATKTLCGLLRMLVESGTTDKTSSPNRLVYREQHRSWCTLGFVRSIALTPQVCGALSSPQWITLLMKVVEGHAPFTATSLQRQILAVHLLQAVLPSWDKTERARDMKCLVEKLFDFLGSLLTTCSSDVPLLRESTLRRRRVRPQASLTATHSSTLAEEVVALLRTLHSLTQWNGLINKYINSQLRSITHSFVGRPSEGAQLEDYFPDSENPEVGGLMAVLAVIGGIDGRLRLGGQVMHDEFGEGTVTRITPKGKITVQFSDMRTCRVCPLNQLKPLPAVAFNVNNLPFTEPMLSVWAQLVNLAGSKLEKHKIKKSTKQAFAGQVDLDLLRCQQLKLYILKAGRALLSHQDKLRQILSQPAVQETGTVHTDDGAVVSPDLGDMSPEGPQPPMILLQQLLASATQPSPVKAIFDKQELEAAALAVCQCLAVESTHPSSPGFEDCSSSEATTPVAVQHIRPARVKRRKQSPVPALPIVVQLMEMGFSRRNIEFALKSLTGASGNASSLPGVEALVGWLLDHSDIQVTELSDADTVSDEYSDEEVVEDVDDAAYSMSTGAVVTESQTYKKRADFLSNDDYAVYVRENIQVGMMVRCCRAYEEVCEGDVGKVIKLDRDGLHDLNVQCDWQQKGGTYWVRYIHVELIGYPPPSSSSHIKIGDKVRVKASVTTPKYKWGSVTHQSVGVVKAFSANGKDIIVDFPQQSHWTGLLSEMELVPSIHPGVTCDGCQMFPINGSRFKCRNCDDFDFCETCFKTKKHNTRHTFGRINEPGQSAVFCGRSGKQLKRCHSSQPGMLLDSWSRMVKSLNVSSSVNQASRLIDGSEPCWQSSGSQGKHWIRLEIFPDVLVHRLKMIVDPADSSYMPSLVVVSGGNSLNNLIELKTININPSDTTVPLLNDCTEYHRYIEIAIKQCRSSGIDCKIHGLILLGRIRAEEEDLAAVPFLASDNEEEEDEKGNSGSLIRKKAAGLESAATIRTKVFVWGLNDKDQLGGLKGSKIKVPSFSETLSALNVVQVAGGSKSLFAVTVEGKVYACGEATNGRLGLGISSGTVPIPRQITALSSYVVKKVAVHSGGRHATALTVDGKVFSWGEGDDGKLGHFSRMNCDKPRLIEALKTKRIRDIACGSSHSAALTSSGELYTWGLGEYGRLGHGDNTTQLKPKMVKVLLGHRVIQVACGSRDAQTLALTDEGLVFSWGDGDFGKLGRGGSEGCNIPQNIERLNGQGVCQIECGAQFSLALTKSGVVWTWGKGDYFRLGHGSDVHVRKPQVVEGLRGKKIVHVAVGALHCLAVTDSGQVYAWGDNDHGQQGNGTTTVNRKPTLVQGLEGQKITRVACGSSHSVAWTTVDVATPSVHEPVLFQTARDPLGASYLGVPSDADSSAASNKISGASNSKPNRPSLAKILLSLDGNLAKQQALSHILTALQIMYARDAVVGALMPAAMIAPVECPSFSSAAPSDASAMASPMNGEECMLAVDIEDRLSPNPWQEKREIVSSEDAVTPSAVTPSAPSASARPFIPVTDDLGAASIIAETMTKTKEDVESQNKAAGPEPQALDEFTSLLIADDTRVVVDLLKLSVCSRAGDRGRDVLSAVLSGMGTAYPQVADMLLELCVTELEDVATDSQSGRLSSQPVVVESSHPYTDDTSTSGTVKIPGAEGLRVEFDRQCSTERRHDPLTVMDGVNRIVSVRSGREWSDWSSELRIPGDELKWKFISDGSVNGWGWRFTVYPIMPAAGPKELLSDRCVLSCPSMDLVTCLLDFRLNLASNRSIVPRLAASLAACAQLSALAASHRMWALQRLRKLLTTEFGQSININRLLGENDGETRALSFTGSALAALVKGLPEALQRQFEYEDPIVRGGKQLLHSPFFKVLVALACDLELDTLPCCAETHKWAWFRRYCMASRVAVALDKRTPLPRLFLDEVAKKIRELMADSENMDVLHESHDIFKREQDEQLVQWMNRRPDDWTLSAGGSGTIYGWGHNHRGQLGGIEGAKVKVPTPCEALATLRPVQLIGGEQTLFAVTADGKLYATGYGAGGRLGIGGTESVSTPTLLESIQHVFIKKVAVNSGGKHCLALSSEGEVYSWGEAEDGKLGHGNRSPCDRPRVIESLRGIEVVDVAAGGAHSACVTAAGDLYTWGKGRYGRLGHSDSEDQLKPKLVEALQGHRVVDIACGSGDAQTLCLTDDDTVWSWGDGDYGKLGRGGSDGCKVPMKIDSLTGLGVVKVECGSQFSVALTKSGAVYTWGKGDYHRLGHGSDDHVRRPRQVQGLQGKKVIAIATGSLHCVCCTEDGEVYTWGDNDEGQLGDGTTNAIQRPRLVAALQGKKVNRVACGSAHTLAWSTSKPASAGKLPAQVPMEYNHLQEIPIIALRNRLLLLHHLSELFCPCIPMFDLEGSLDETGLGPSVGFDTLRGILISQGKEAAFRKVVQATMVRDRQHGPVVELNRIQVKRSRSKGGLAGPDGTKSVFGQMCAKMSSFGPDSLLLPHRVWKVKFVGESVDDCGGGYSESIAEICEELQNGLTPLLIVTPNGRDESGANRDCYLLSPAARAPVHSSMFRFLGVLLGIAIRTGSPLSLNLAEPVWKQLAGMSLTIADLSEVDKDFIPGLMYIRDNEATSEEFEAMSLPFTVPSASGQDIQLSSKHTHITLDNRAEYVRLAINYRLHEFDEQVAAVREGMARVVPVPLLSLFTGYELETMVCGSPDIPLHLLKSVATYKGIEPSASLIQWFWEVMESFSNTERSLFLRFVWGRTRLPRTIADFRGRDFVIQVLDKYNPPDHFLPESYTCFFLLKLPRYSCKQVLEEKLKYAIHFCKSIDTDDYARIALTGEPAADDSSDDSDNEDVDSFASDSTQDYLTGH
Outline: as §1

ANKRD52 = target: T1, ANKRD52 (human, UniProt Q8NB46 1-1076)
T1 sequence (looked up): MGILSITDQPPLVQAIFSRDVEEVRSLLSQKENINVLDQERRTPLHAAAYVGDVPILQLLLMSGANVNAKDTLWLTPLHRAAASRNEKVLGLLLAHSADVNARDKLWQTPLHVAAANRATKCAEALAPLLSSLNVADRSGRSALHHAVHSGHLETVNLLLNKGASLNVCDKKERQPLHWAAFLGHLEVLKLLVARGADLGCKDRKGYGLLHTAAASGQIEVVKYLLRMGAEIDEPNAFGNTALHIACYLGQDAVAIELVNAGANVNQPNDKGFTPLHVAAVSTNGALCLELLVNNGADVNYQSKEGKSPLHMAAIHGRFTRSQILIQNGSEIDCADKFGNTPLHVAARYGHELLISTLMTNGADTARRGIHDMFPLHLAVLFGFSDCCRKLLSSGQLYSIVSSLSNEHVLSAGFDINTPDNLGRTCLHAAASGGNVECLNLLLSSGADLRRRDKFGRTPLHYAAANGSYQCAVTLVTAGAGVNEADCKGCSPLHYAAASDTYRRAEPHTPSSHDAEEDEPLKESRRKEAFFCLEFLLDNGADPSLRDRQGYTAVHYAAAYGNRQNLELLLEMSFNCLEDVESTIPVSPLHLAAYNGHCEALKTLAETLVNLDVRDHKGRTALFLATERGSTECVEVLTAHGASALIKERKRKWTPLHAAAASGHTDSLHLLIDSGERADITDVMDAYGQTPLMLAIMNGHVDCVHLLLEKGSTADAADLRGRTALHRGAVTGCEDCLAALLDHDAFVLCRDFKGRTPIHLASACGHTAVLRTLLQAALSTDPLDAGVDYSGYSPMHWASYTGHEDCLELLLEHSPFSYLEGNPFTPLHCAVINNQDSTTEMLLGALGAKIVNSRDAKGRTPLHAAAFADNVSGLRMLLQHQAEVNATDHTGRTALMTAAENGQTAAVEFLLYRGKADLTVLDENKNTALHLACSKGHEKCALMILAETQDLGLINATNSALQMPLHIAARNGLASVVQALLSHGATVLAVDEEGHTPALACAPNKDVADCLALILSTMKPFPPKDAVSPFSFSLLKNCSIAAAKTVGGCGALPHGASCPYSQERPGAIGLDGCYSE
Outline: as §1

Measured: binding result

B1: LZTR1 R810W-FLAG (other, human, UniProt Q8N653 1-840, looked up)
chain: MAGPGSTGGQIGAAALAGGARSKVAPSVDFDHSCSDSVEYLTLNFGPFETVHRWRRLPPCDEFVGARRSKHTVVAYKDAIYVFGGDNGKTMLNDLLRFDVKDCSWCRAFTTGTPPAPRYHHSAVVYGSSMFVFGGYTGDIYSNSNLKNKNDLFEYKFATGQWTEWKIEGRLPVARSAHGATVYSDKLWIFAGYDGNARLNDMWTIGLQDRELTCWEEVAQSGEIPPSCCNFPVAVCRDKMFVFSGQSGAKITNNLFQFEFKDKTWTRIPTEHLLRGSPPPPQRRYGHTMVAFDRHLYVFGGAADNTLPNELHCYDVDFQTWEVVQPSSDSEVGGAEVPERACASEEVPTLTYEERVGFKKSRDVFGLDFGTTSAKQPTQPASELPSGRLFHAAAVISDAMYIFGGTVDNNIRSGEMYRFQFSCYPKCTLHEDYGRLWESRQFCDVEFVLGEKEECVQGHVAIVTARSRWLRRKITQARERLAQKLEQEAAPVPREAPGVAAGGARPPLLHVAIREAEARPFEVLMQFLYTDKIKYPRKGHVEDVLLIMDVYKLALSFQLCRLEQLCRQYIEASVDLQNVLVVCESAARLQLSQLKEHCLNFVVKESHFNQVIMMKEFERLSSPLIVEIVRRKQQPPPRTPLDQPVDIGTSLIQDMKAYLEGAGAEFCDITLLLDGHPRPAHKAILAARSSYFEAMFRSFMPEDGQVNISIGEMVPSRQAFESMLRYIYYGEVNMPPEDSLYLFAAPYYYGFYNNRLQAYCKQNLEMNVTVQNVLQILEAADKTQALDMKRHCLHIIVHQFTKVSKLPTLWSLSQQLLLDIIDSLASHISDKQCAELGADI
notes: Stably expressed in U87 cells by lentivirus; also called LZTR1-FLAG-R810W; LZTR1 RW; not shown: FLAG tag
binds: HTT | SPG11 | HERC2 | ANKRD52
